Consider five molecules from article PMC12381655.

Sequences and labels used below:
B1: Biotin-RNA5 (A24 2'-MOE) (XNA)
strand: AAAAAAAAAAAAAAAAAAAAAAAA
modifications: 2'-O-methoxyethyl A, about 50% by design (positions in Table S2/Fig. 3A not in material)
B2: Biotin-RNA3 (A24 DNA) (XNA)
strand: AAAAAAAAAAAAAAAAAAAAAAAA
modifications: 2'-deoxy A substitutions, about 50% by design (positions in Table S2/Fig. 3A not in material)

Chain of PABP (hPABPC1) (P11940 whole entry): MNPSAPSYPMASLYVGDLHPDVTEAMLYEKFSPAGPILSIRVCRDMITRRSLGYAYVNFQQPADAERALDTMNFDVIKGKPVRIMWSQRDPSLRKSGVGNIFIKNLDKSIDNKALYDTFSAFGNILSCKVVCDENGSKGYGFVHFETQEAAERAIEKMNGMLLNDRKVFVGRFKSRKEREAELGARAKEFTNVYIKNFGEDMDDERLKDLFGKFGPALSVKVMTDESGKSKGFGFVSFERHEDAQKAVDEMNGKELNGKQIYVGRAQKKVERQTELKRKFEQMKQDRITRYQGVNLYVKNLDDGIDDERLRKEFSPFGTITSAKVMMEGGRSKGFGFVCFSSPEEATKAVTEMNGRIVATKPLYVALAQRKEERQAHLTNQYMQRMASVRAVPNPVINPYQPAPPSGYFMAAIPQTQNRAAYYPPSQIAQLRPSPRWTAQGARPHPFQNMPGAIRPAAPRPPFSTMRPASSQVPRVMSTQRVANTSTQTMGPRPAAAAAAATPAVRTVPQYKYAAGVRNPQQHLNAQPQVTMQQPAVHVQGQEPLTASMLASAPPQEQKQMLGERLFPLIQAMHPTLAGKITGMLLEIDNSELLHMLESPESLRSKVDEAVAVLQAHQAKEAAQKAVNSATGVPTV

The data set has as its target PABP (hPABPC1) (human, UniProt P11940 1-636). The data set can be described thus: SPR. A general note: In SPR one partner is held on a chip, and binding of the other changes the refractive index at the surface.
For the molecule ACUGCGCUGAUUUUUUUUUUUUUUUUUUUUUUUUUUUUUUUUUUUUUUUU (ssRNA) [Biotin-RNA8 (U40)], the binding result was “no binding”. The value for AAAAAAAAAAAAAAAAAAAAAAAA (XNA, 2'-fluoro A, 50% substitution (positions in Table S2/Fig. 3A not in material)) [Biotin-RNA6 (A24 2'-F)] was “no binding”. For B1 the value was “no binding”; for B2, “no binding”.

AAAAAAAAAAAAAAAAAAAAAAAA (XNA, 2'-O-methyl A, 50% substitution (positions in Table S2/Fig. 3A not in material)) [Biotin-RNA4 (A24 2'-OMe)]: the binding result is “no binding”.
